± gives the uncertainty stated by the source.
Assay: self-splicing fitness, log relative to wild type (ln ratio); higher = more splicing; Tetrahymena group I intron in knt gene, E. coli kanamycin selection, DiMSum; sequences stand for … in CUCUCU…GGAGGGAAAAGUUAUCAGGCAUGCACCUGGUAGCUAGUCUUUAAACCAAUAGAUUGCAUCGGUUUAAAAGGCAAGACCGUCAAAUUGCGGGAAAGGGGUCAACAGCCGUUCAGUACCAAGUCUCAGGGGAAACUUUGAGAUGGCCUUGCAAAGGGUAUGGUAAUAAGCUGACGGACAUGGUCCUAACCACGCAGCCAAGUCCUAAGUCAACAGAUCUUCUGUUGAUAUGGAUGCAGUUCACAGACUAAAUGUCGGUCGGGGAAGAUGUAUUCUUCUCAUAAGAUAUAGUCGGACCUCUCCUUAAUGGGAGCUAGCGGAUGAAGUGAUGCAACACUGGAGCCGCUGGGAACUAAUUUGUAUGCGAAAGUAUAUUGAUUAGUUUUGGAGUACUCGUGGUCG
Outline: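 DiMSum derived fitness as the error-weighted combination of fold changes across replicates, kanamycin versus no kanamycin, normalised to wild type. E. coli BL21(DE3) held the library, which randomised all eight P1ex-region intron nucleotides within the knt kanamycin-resistance gene on pET-22b(+). Six replicate transformations grew overnight at 37°C or 30°C on LB agar with or without 25 μg/mL kanamycin, also containing 100 μg/mL carbenicillin, 50 μM IPTG and 0.2% rhamnose, and pooled colonies were amplicon-sequenced on an Illumina HiSeq 2500.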

Sequence | self-splicing fitness (ln) (30 °C) | self-splicing fitness (ln) (37 °C)
GUAUAGCAAUAUUACGAUUA | -1.14 ± 0.16 | -1.4 ± 0.15
ACAAAGCAAUAUUACGUAAU | -2.62 ± 0.061 | -1.14 ± 0.074
UCAGAGCAAUAUUACGCCCU | – | -2.21 ± 0.39
UCUCAGCAAUAUUACGGAGA | -3.23 ± 0.41 | -3.43 ± 0.39
GAGAAGCAAUAUUACGAAUG | -3.46 ± 0.28 | -1.7 ± 0.18
GAUAAGCAAUAUUACGCAGG | -1.69 ± 0.13 | -2.95 ± 0.21
UAGUAGCAAUAUUACGCACC | – | -0.0165 ± 0.38
ACUCAGCAAUAUUACGAGAG | -2.02 ± 0.14 | -0.637 ± 0.12
UGUGAGCAAUAUUACGUUGG | -2.86 ± 0.31 | -2.85 ± 0.44
UACGAGCAAUAUUACGCUAU | -2.4 ± 0.14 | -3.49 ± 0.29
AGCAAGCAAUAUUACGAAAU | -2.42 ± 0.098 | -1.51 ± 0.12
UAGAAGCAAUAUUACGUGAC | -3.33 ± 0.24 | -2.28 ± 0.28
CGAUAGCAAUAUUACGAAUA | -0.837 ± 0.46 | -1.47 ± 0.46
AUAUAGCAAUAUUACGCGGU | -2.75 ± 0.18 | -2.28 ± 0.19
GCGCAGCAAUAUUACGUGCC | -3.26 ± 0.18 | -2.75 ± 0.29
CGCGAGCAAUAUUACGGACA | – | -0.573 ± 0.34
GACCAGCAAUAUUACGAUAA | -1.53 ± 0.094 | -1.13 ± 0.1
AGCGAGCAAUAUUACGCAUU | -2.63 ± 0.24 | -2.04 ± 0.2
UAGAAGCAAUAUUACGGUUA | 0.144 ± 0.094 | -0.007 ± 0.086
UUUGAGCAAUAUUACGGUGA | -2.07 ± 0.15 | -2.46 ± 0.18
UCCAAGCAAUAUUACGAUUC | -2.6 ± 0.37 | -2.18 ± 0.34
UCCUAGCAAUAUUACGGCUC | – | -1.62 ± 0.44
CAUUAGCAAUAUUACGCUGA | -3.13 ± 0.24 | -1.96 ± 0.26
AUAGAGCAAUAUUACGAUCA | -0.545 ± 0.098 | -0.894 ± 0.15

Sequence | self-splicing fitness (ln) (30 °C) | self-splicing fitness (ln) (37 °C)
GCAAAGCAAUAUUACGUUAC | -2.75 ± 0.19 | -1.3 ± 0.15
UAGUAGCAAUAUUACGUUAA | -2.34 ± 0.17 | -2.06 ± 0.17
UUGGAGCAAUAUUACGCGUG | -3.03 ± 0.18 | -0.323 ± 0.087
CAACAGCAAUAUUACGCUUA | -2.13 ± 0.12 | -0.653 ± 0.09
CAUUAGCAAUAUUACGCACA | -1.01 ± 0.16 | -0.408 ± 0.13
UACGAGCAAUAUUACGUUGU | -3.36 ± 0.16 | -2.68 ± 0.18
UCUAAGCAAUAUUACGUCAA | -2.57 ± 0.24 | -1.77 ± 0.27
UUUAAGCAAUAUUACGAGAG | -1.49 ± 0.11 | -1.13 ± 0.12
CGGAAGCAAUAUUACGGCAA | -2.89 ± 0.22 | -1.41 ± 0.18
UUAUAGCAAUAUUACGGUGU | -3.63 ± 0.31 | -2.23 ± 0.3
UAGGAGCAAUAUUACGCGUC | -2.98 ± 0.28 | -2.22 ± 0.29
UAUUAGCAAUAUUACGAUUC | -1.88 ± 0.16 | -0.062 ± 0.18
ACAUAGCAAUAUUACGGAAC | -3.66 ± 0.24 | -2 ± 0.27
AUAUAGCAAUAUUACGGGAC | -2.51 ± 0.48 | -1.82 ± 0.48
UAACAGCAAUAUUACGCAGG | -2.5 ± 0.09 | -0.402 ± 0.08
CCACAGCAAUAUUACGGCUA | -3.88 ± 0.16 | -2.89 ± 0.15
CACGAGCAAUAUUACGGUAA | – | -2.37 ± 0.27
UUUGAGCAAUAUUACGGACG | -2.51 ± 0.24 | -2.71 ± 0.31
UGAUAGCAAUAUUACGCGUA | -1.74 ± 0.13 | -0.96 ± 0.13
GGCAAGCAAUAUUACGGAGA | -2.37 ± 0.24 | -2.22 ± 0.27
CUCCAGCAAUAUUACGUCAC | -3.88 ± 0.26 | -2.69 ± 0.29
UUGGAGCAAUAUUACGACAU | -1.81 ± 0.02 | -1.04 ± 0.036
GGCCAGCAAUAUUACGAUAC | -2.04 ± 0.11 | -0.501 ± 0.13
AACAAGCAAUAUUACGCCAA | -2.32 ± 0.14 | -2.55 ± 0.16
